Experimental data as given in US20060172958A1 (published 2006).

B1: lamin C control bait (pAS2-lamin C) (other, UniProt P02545-2 66-230, looked up)
chain: SEEVVSREVSGIKAAYEAELGDARKTLDSVAKERARLQLELSKVREEFKELKARNTKKEGDLIAAQARLKDLEALLNSKEAALSTALSEKRTLEGELHDLRGQVAKLEAALGEAKKQLQDEMLRRVDAENRLQTMKEELDFQKNIYSEELRETKRRHETRLVEID
notes: also called control bait lamin C; not shown: bait fusion partner encoded by the pAS2 vector
B2: phospholipid scramblase 3 (PLS3), human, isoform not stated (enzyme)
chain: not shown
modifications: phosphothreonine, position not stated (shown by the anti-PT blot of immunoprecipitated PLS3)
notes: also called endogenous PLS3; wild-type PLS3

Legend:
[1] = target: T1, yeast two-hybrid library clone encoding amino acids 103-277 of phospholipid scramblase 3 (human, UniProt Q9NRY6 103-277); experiment: yeast two-hybrid
T1 construct: also called PLS3 clone; cDNA cloned from the yeast two-hybrid screen; not shown: fusion partner of the Clontech MatchMaker human liver library vector
T1 sequence (Q9NRY6 103-277): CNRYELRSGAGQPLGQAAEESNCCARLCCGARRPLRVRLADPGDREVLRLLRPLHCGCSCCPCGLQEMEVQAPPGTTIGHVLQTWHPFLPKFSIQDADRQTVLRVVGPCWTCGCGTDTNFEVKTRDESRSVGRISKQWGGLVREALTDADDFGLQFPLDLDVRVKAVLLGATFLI

c-abl kinase = c-abl kinase (UniProt P00519 1-1130, limits assumed); experiment: co-immunoprecipitation with PLS3 antibody, Western blot with c-abl antibody
Sequence of c-abl kinase (P00519 whole entry): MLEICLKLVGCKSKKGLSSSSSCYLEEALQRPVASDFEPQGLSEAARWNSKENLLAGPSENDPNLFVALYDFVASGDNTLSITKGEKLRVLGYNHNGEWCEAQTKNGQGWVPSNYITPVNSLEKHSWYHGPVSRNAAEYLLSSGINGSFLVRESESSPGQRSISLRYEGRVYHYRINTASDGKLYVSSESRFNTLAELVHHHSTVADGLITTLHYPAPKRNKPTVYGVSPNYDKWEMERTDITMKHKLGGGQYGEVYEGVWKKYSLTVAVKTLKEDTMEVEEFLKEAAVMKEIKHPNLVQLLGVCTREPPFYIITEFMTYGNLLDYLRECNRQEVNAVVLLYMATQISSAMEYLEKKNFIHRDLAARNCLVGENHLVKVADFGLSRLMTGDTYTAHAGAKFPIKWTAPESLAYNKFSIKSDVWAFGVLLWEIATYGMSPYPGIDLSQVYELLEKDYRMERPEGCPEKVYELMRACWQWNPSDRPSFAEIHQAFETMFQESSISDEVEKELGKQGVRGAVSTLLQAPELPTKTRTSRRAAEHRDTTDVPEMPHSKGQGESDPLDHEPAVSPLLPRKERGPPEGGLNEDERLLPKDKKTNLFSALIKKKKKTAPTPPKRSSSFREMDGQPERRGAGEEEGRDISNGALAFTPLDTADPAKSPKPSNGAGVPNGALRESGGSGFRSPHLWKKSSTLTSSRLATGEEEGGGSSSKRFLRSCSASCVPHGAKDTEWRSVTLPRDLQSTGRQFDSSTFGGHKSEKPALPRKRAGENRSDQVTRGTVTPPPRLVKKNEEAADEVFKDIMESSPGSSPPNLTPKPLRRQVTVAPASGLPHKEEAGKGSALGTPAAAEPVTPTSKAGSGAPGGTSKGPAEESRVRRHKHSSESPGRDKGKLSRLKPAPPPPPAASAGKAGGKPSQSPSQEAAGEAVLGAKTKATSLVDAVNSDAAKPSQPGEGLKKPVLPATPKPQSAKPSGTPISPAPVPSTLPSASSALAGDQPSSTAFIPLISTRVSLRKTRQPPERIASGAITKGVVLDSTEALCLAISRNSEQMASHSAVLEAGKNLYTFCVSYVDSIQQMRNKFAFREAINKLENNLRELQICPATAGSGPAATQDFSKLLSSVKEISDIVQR

Row | Binder | binding result [1] | binding result (c-abl kinase)
1 | B1 | no binding | –
2 | B2 | – | no binding
